Results published in the supplement of paper PMC10724198.
± gives the standard deviation of the averaged measurements.

tested on: Saccharomyces cerevisiae; assay: protein stability index of tFT-peptide fusion (C-terminal peptide) (PSI (0-1 scale)); higher = more stable (slower turnover); settings: genetic background: das1 deletion; temperature: 37 C
Protocol: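 MPS profiling in S. cerevisiae of the tFT-X12 degron library: putative degron peptides plus stable controls, 12 aa, fused to the C-terminus of a sfGFP-mCherry timer. Cells are FACS-sorted into 8 mCherry/sfGFP bins and deep-sequenced. PSI runs from 0 (unstable) to 1 (stable). Backgrounds are wild type, das1Δ and doa10Δ at 30 °C, and wild type, das1Δ, cdc34-1 and cdc53-1 at 37 °C; 2-3 technical replicates each.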
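Note: PSI is a weighted mean of sequencing reads over stability bins, variants kept only with over 10 reads, mCherry proximal and sfGFP distal, peptide attached via GGGS linker.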

Sequence	protein stability index
DAIVLGSVVVCR	0.5719 ± 0.0051
DCRFIIFYCVMV	0.509 ± 0.019
DDESLVGRWRKV	0.738 ± 0.011
DFPGDIILRLIA	0.728 ± 0.025
DLAWAIGRLTKG	0.761 ± 0.016
DLPKAYCIEMIG	0.7187 ± 0.005
DNLYSLEFMAIR	0.7875 ± 0.0042
DPPRPIMRIHMI	0.719 ± 0.016
DSPRGRCVRLLV	0.741 ± 0.017
DWCACFFILLLA	0.17 ± 0.016
DWTVSYLWVTAL	0.599 ± 0.006
ECCKRFCCRFVA	0.73 ± 0.018
EERKIFLKVVKV	0.5748 ± 0.0007
EGGLGDRLLGVG	0.573 ± 0.021
EMISRNVFTYLS	0.773 ± 0.023
EMPRLSKAIRVT	0.603 ± 0.011
EVGTMALISCSV	0.458 ± 0.022
EWSRVVRWNWDG	0.707 ± 0.0084
FALVSLSFALVE	0.518 ± 0.0066
FAVHHLRYILLV	0.436 ± 0.0073

Sequence	protein stability index
FCCSVFCFLCLY	0.572 ± 0.0057
FCGLLGVCLVMG	0.389 ± 0.013
FCHFSSLVSVSL	0.6377 ± 0.0016
FCLLRYPFVGVL	0.677 ± 0.025
FCSNLLSMVIAV	0.4315 ± 0.0038
FCVGVLFSCLVF	0.4295 ± 0.0031
FCVGVVIQLSGV	0.499 ± 0.0053
FCVLLFYCFFFF	0.38 ± 0.0096
FERKVHSRWLFF	0.7407 ± 0.00086
FFATFVPSFLLC	0.6776 ± 0.00086
FFCYFFEFFICG	0.468 ± 0.0082
FFFVFLGLRSVF	0.577 ± 0.11
FFGFFWLFLLFC	0.364 ± 0.016
FFIVGACAYVFA	0.385 ± 0.0094
FFLLLVSVLSGW	0.3301 ± 0.00052
FFPFHPHVLRLL	0.6373 ± 0.0012
FFRAYLQMYVTD	0.4057 ± 0.0032
FFVFLVLFCLWV	0.397 ± 0.008
FFVFMAKLRTCN	0.594 ± 0.0073
FFVFYICSCFLV	0.4843 ± 0.0041

Sequence	protein stability index
FFYVFPFFIFRF	0.521 ± 0.017
FGLRVHPIVFIF	0.488 ± 0.018
FGLVAYPLWYIS	0.777 ± 0.0099
FGSFVVWGVWWG	0.563 ± 0.038
FGVLGCAWVWVG	0.625 ± 0.017
FICLLFSCVYLG	0.593 ± 0.039
FIGVLVFSWLLF	0.412 ± 0.021
FKVTWGLFYGSV	0.581 ± 0.013
FLCVLYFFLCVE	0.404 ± 0.055
FLQIIIFSRVLF	0.549 ± 0.0081
FLRWRVWVVVGW	0.358 ± 0.027
FLSRLVGFYFVV	0.733 ± 0.022
FLSVPHLLFLFI	0.619 ± 0.0054
FLTLQSPIQYIV	0.7289 ± 0.0016
FLTSPSVWRYLF	0.755 ± 0.0045
FLYIPLYCRLSF	0.433 ± 0.019
FPTLHPAIPYLC	0.7116 ± 0.0013
FRFGAKISLIVL	0.584 ± 0.015
FRHFPLLLSFVR	0.512 ± 0.01
FRILVGCRVVLM	0.5047 ± 0.00065

same assay, conditions: genetic background: doa10 deletion; temperature: 30 C

Sequence	protein stability index
DAIVLGSVVVCR	0.342 ± 0.0065
DCRFIIFYCVMV	0.454 ± 0.06
DDESLVGRWRKV	0.25 ± 0.0057
DFPGDIILRLIA	0.139 ± 0.0097
DLAWAIGRLTKG	0.653 ± 0.011
DLPKAYCIEMIG	0.198 ± 0.029
DNLYSLEFMAIR	0.655 ± 0.025
DPPRPIMRIHMI	0.115 ± 0.021
DSPRGRCVRLLV	0.253 ± 0.0077
DWCACFFILLLA	0.145 ± 0.0095
DWTVSYLWVTAL	0.185 ± 0.0044
ECCKRFCCRFVA	0.231 ± 0.0082
EERKIFLKVVKV	0.218 ± 0.021
EGGLGDRLLGVG	0.5161 ± 0.0024
EMISRNVFTYLS	0.394 ± 0.034
EMPRLSKAIRVT	0.279 ± 0.0047
EVGTMALISCSV	0.252 ± 0.019
EWSRVVRWNWDG	0.121 ± 0.0082
FALVSLSFALVE	0.28 ± 0.0036
FAVHHLRYILLV	0.0929 ± 0.009

Sequence	protein stability index
FCCSVFCFLCLY	0.5442 ± 0.001
FCGLLGVCLVMG	0.185 ± 0.016
FCHFSSLVSVSL	0.494 ± 0.021
FCLLRYPFVGVL	0.272 ± 0.0032
FCSNLLSMVIAV	0.265 ± 0.012
FCVGVLFSCLVF	0.286 ± 0.0042
FCVGVVIQLSGV	0.296 ± 0.0032
FCVLLFYCFFFF	0.314 ± 0.012
FERKVHSRWLFF	0.0981 ± 0.019
FFATFVPSFLLC	0.268 ± 0.0089
FFCYFFEFFICG	0.337 ± 0.015
FFFVFLGLRSVF	0.339 ± 0.011
FFGFFWLFLLFC	0.318 ± 0.019
FFIVGACAYVFA	0.204 ± 0.013
FFLLLVSVLSGW	0.152 ± 0.02
FFPFHPHVLRLL	0.215 ± 0.0068
FFRAYLQMYVTD	0.423 ± 0.032
FFVFLVLFCLWV	0.321 ± 0.022
FFVFMAKLRTCN	0.112 ± 0.019
FFVFYICSCFLV	0.457 ± 0.0071

Sequence	protein stability index
FFYVFPFFIFRF	0.505 ± 0.025
FGLRVHPIVFIF	0.0775 ± 0.022
FGLVAYPLWYIS	0.0782 ± 0.031
FGSFVVWGVWWG	0.352 ± 0.015
FGVLGCAWVWVG	0.0888 ± 0.019
FICLLFSCVYLG	0.3776 ± 0.0014
FIGVLVFSWLLF	0.215 ± 0.0034
FKVTWGLFYGSV	0.535 ± 0.059
FLCVLYFFLCVE	0.195 ± 0.01
FLQIIIFSRVLF	0.366 ± 0.026
FLRWRVWVVVGW	0.18 ± 0.012
FLSRLVGFYFVV	0.313 ± 0.006
FLSVPHLLFLFI	0.49 ± 0.016
FLTLQSPIQYIV	0.105 ± 0.0049
FLTSPSVWRYLF	0.125 ± 0.046
FLYIPLYCRLSF	0.209 ± 0.018
FPTLHPAIPYLC	0.237 ± 0.01
FRFGAKISLIVL	0.189 ± 0.0063
FRHFPLLLSFVR	0.324 ± 0.015
FRILVGCRVVLM	0.311 ± 0.0097

same assay, conditions: genetic background: wild type; temperature: 30 C

Sequence	protein stability index
DAIVLGSVVVCR	0.39 ± 0.038
DCRFIIFYCVMV	0.454 ± 0.037
DDESLVGRWRKV	0.313 ± 0.014
DFPGDIILRLIA	0.155 ± 0.0082
DLAWAIGRLTKG	0.652 ± 0.0094
DLPKAYCIEMIG	0.215 ± 0.023
DNLYSLEFMAIR	0.645 ± 0.012
DPPRPIMRIHMI	0.111 ± 0.015
DSPRGRCVRLLV	0.308 ± 0.0036
DWCACFFILLLA	0.0983 ± 0.018
DWTVSYLWVTAL	0.208 ± 0.0091
ECCKRFCCRFVA	0.256 ± 0.021
EERKIFLKVVKV	0.305 ± 0.027
EGGLGDRLLGVG	0.518 ± 0.016
EMISRNVFTYLS	0.42 ± 0.023
EMPRLSKAIRVT	0.314 ± 0.028
EVGTMALISCSV	0.288 ± 0.034
EWSRVVRWNWDG	0.148 ± 0.014
FALVSLSFALVE	0.292 ± 0.036
FAVHHLRYILLV	0.0847 ± 0.024

Sequence	protein stability index
FCCSVFCFLCLY	0.492 ± 0.0071
FCGLLGVCLVMG	0.221 ± 0.03
FCHFSSLVSVSL	0.496 ± 0.018
FCLLRYPFVGVL	0.318 ± 0.0089
FCSNLLSMVIAV	0.3 ± 0.012
FCVGVLFSCLVF	0.301 ± 0.019
FCVGVVIQLSGV	0.326 ± 0.021
FCVLLFYCFFFF	0.273 ± 0.032
FERKVHSRWLFF	0.15 ± 0.016
FFATFVPSFLLC	0.305 ± 0.022
FFCYFFEFFICG	0.323 ± 0.011
FFFVFLGLRSVF	0.292 ± 0.016
FFGFFWLFLLFC	0.202 ± 0.033
FFIVGACAYVFA	0.231 ± 0.029
FFLLLVSVLSGW	0.185 ± 0.029
FFPFHPHVLRLL	0.203 ± 0.026
FFRAYLQMYVTD	0.416 ± 0.043
FFVFLVLFCLWV	0.261 ± 0.031
FFVFMAKLRTCN	0.127 ± 0.025
FFVFYICSCFLV	0.372 ± 0.0097

Sequence	protein stability index
FFYVFPFFIFRF	0.362 ± 0.058
FGLRVHPIVFIF	0.0769 ± 0.016
FGLVAYPLWYIS	0.0991 ± 0.0037
FGSFVVWGVWWG	0.356 ± 0.032
FGVLGCAWVWVG	0.114 ± 0.021
FICLLFSCVYLG	0.382 ± 0.026
FIGVLVFSWLLF	0.235 ± 0.024
FKVTWGLFYGSV	0.548 ± 0.026
FLCVLYFFLCVE	0.224 ± 0.015
FLQIIIFSRVLF	0.364 ± 0.031
FLRWRVWVVVGW	0.181 ± 0.021
FLSRLVGFYFVV	0.312 ± 0.014
FLSVPHLLFLFI	0.4689 ± 0.0032
FLTLQSPIQYIV	0.117 ± 0.017
FLTSPSVWRYLF	0.139 ± 0.017
FLYIPLYCRLSF	0.147 ± 0.028
FPTLHPAIPYLC	0.282 ± 0.022
FRFGAKISLIVL	0.225 ± 0.033
FRHFPLLLSFVR	0.323 ± 0.04
FRILVGCRVVLM	0.343 ± 0.051

same assay, conditions: genetic background: wild type; temperature: 37 C

Sequence	protein stability index
DAIVLGSVVVCR	0.55 ± 0.013
DCRFIIFYCVMV	0.506 ± 0.019
DDESLVGRWRKV	0.547 ± 0.019
DFPGDIILRLIA	0.214 ± 0.069
DLAWAIGRLTKG	0.743 ± 0.013
DLPKAYCIEMIG	0.432 ± 0.02
DNLYSLEFMAIR	0.7796 ± 0.004
DPPRPIMRIHMI	0.171 ± 0.027
DSPRGRCVRLLV	0.599 ± 0.067
DWCACFFILLLA	0.111 ± 0.028
DWTVSYLWVTAL	0.385 ± 0.02
ECCKRFCCRFVA	0.4002 ± 0.0022
EERKIFLKVVKV	0.4656 ± 0.0028
EGGLGDRLLGVG	0.547 ± 0.0066
EMISRNVFTYLS	0.6266 ± 0.0049
EMPRLSKAIRVT	0.4961 ± 0.0028
EVGTMALISCSV	0.427 ± 0.039
EWSRVVRWNWDG	0.266 ± 0.015
FALVSLSFALVE	0.472 ± 0.02
FAVHHLRYILLV	0.129 ± 0.016

Sequence	protein stability index
FCCSVFCFLCLY	0.518 ± 0.019
FCGLLGVCLVMG	0.354 ± 0.011
FCHFSSLVSVSL	0.611 ± 0.025
FCLLRYPFVGVL	0.514 ± 0.0069
FCSNLLSMVIAV	0.438 ± 0.029
FCVGVLFSCLVF	0.43 ± 0.023
FCVGVVIQLSGV	0.473 ± 0.014
FCVLLFYCFFFF	0.335 ± 0.041
FERKVHSRWLFF	0.437 ± 0.018
FFATFVPSFLLC	0.511 ± 0.021
FFCYFFEFFICG	0.441 ± 0.025
FFFVFLGLRSVF	0.434 ± 0.012
FFGFFWLFLLFC	0.257 ± 0.02
FFIVGACAYVFA	0.37 ± 0.015
FFLLLVSVLSGW	0.2942 ± 0.00091
FFPFHPHVLRLL	0.324 ± 0.014
FFRAYLQMYVTD	0.412 ± 0.0073
FFVFLVLFCLWV	0.356 ± 0.0055
FFVFMAKLRTCN	0.198 ± 0.029
FFVFYICSCFLV	0.442 ± 0.024

Sequence	protein stability index
FFYVFPFFIFRF	0.449 ± 0.0095
FGLRVHPIVFIF	0.0909 ± 0.047
FGLVAYPLWYIS	0.105 ± 0.029
FGSFVVWGVWWG	0.5069 ± 0.0015
FGVLGCAWVWVG	0.103 ± 0.037
FICLLFSCVYLG	0.5293 ± 0.005
FIGVLVFSWLLF	0.381 ± 0.021
FKVTWGLFYGSV	0.595 ± 0.011
FLCVLYFFLCVE	0.334 ± 0.022
FLQIIIFSRVLF	0.52 ± 0.011
FLRWRVWVVVGW	0.332 ± 0.039
FLSRLVGFYFVV	0.463 ± 0.014
FLSVPHLLFLFI	0.6023 ± 0.0038
FLTLQSPIQYIV	0.124 ± 0.0086
FLTSPSVWRYLF	0.227 ± 0.017
FLYIPLYCRLSF	0.343 ± 0.011
FPTLHPAIPYLC	0.468 ± 0.02
FRFGAKISLIVL	0.42 ± 0.034
FRHFPLLLSFVR	0.5 ± 0.0094
FRILVGCRVVLM	0.483 ± 0.016
